Experimental data from article PMC3320615, “β-Microseminoprotein Endows Post Coital Seminal Plasma with Potent Candidacidal Activity by a Calcium- and pH-Dependent Mechanism” (PLoS Pathogens, 2012).

B1: β-microseminoprotein (natural protein, human, UniProt P08118 21-114, looked up)
chain: SCYFIPNEGVPGDSTRKCMDLKGNKHPINSEWQTDNCETCTCYETEISCCTLVSTPVGYDKDNCQRIFKKEDCKYIVVEKKDPKKTCSVSEWII
notes: human β-microseminoprotein (MSP, PSP94), native protein purified from seminal plasma; also called MSP; PSP94

What was measured:
[1] = Liposome leakage (carboxyfluorescein release); format: biochemical; conditions: % ± SD of leakage with Triton X-100, CF fluorescence 520 nm, 37°C, at least triplicate
Procedure: Subsequently, buffer (10 mM Tris, pH 7.4) was added together with 0.1 M carboxyfluorescein (CF) (Sigma, St Louis, MO). After hydration, the lipid mixture was subjected to eight freeze-thaw cycles consisting of freezing in liquid nitrogen and heating to 60°C. Unilamellar liposomes of about Ø140 nm were generated by multiple extrusions through polycarbonate filters (pore size 100 nm) mounted in a […] (Avestin, Ottawa, Canada) at 22°C. Untrapped CF was then removed by two gel filtrations (Sephadex G-50) at 22°C, with Tris buffer as eluent. CF release was determined by monitoring the emitted fluorescence at 520 nm from liposome dispersions (10 mM lipid in 10 mM Tris). An absolute leakage scale was obtained by disrupting the liposomes at the end of the experiment through addition of 0.8 mM Triton X100 (Sigma, St Louis, MO), causing 100% release and dequenching of CF. Although calcein is frequently used for pH-dependent leakage studies, the high charge of this dye has been noted to influence its leakage behavior in the presence of highly cationic peptides. Instead, therefore, CF was used as a leakage marker at both pH 6.0 and 7.4, avoiding pH-dependent fluorescence effects through neutralization prior to probing the limiting leakage in case of pH 6.0 leakage. Throughout, a SPEX-fluorolog 1650 0.22-m double spectrometer (SPEX Industries, Edison, NJ) was used for the liposome leakage assay. Measurements were performed in at least triplicate at 37°C.

[2] = system: C. albicans; test: Antifungal gel overlay assay (AU-PAGE); format: cell-based, Candida albicans
Procedure: Gel overlay assay was performed essentially as described. Briefly, duplicate samples were run on native Acid Urea (AU-PAGE) gels in 5% (v/v) acetic acid at 100 V for 1 h 20 min. Candida albicans was grown over night, washed and resuspended in 10 mM NaPO4 pH 7.4 and approximately 1×10^5 CFU were added to 12 ml melted underlay agarose (10 mM NaPO4, pH 7.4, 0.03% SAB, 1% agarose type 1 (Sigma, St. Louis, MO)) and poured into a square Petri dish. One AU-gel was stained with Coomassie brilliant blue and one AU gel was washed 3×4 min in 10 mM NaPO4, pH 7.4 and then placed on top of the agarose and incubated for 4 h at 37°C. The AU gel was then removed and an overlay agarose (6% SAB, 1% agarosetype 1 (Sigma)) was poured on top of the underlay and incubated over night at 30°C. To make the clearing zones more visible, the agarose was stained with Coomassie brilliant blue followed by destaining.

[3] = system: E. coli (strain 37.4); test: Antibacterial CFU assay; format: cell-based; conditions: purified MSP 10 µM + 20 µM EDTA or recombinant dialyzed MSP 10 µM + 10 µM EDTA; low and neutral pH; data not shown
Procedure: (§1) E. coli (strain 37.4), S. aureus (strain 5120), S. pyogenes (M5 Manfredo), S. agalactiae (SB1), and E. faecalis (strain 2374) were grown in THY medium (Todd Hewitt with addition of yeast) and on THY agar plates at 37°C with 5% (v/v) CO2. Candida albicans was grown over night, washed, and resuspended in 10 mM Tris, 5 mM glucose, pH 7.4 or pH 4. Approximately 4×10^3 to 10^4 CFU of C. albicans were incubated with the test substance in low or neutral pH buffer for 4 h at 37°C. After incubation, the suspension was diluted and plated. Colonies were counted after two days incubation of the plates at 30°C. Bacteria from overnight cultures were inoculated in fresh medium and grown for 3 h, washed in 10 mM Tris, 5 mM glucose pH 7.4. Approximately 8×10^4 CFU were incubated with sample in 10 mM Tris, 5 mM glucose pH 7.4 or pH 4 for 1 h at 37°C, diluted, plated and incubated over night at 37°C and the colonies counted.

[4] = system: E. faecalis (strain 2374); test: Antibacterial CFU assay; format: cell-based; conditions: purified MSP 10 µM + 20 µM EDTA or recombinant dialyzed MSP 10 µM + 10 µM EDTA; low and neutral pH; data not shown
Procedure: as §1

[5] = system: S. agalactiae (SB1); test: Antibacterial CFU assay; format: cell-based; conditions: purified MSP 10 µM + 20 µM EDTA or recombinant dialyzed MSP 10 µM + 10 µM EDTA; neutral pH; data not shown
Procedure: as §1

[6] = system: S. aureus (strain 5120); test: Antibacterial CFU assay; format: cell-based; conditions: purified MSP 10 µM + 20 µM EDTA or recombinant dialyzed MSP 10 µM + 10 µM EDTA; neutral pH; data not shown
Procedure: as §1

[7] = system: S. pyogenes (M5 Manfredo); test: Antibacterial CFU assay; format: cell-based; conditions: purified MSP 10 µM + 20 µM EDTA or recombinant dialyzed MSP 10 µM + 10 µM EDTA; neutral pH; data not shown
Procedure: as §1

[8] = system: C. albicans; test: Scanning electron microscopy of C. albicans; format: cell-based, Candida albicans; conditions: 5 h; 20 µM MSP with 40 µM EDTA, or EDTA alone
Procedure: Specimens were washed with cacodylate buffer, and dehydrated with an ascending ethanol series from 50% (v/v) to absolute ethanol. The specimens were then subjected to critical-point drying in carbon dioxide, with absolute ethanol as intermediate solvent, mounted on aluminum holders, sputtered with 30 nm palladium/gold and examined in a JEOL JSM-350 scanning electron microscope. A small volume from each of the samples was also plated to check antifungal activity.

[9] = Size exclusion chromatography (dimerization); format: physicochemical; conditions: pH 7.5; 50 mM Tris, 150 mM NaCl; 1 mM calcium or 1 mM EDTA; HiPrep 16/60 Sephacryl S 100
Text: Supplementary file ppat.1002625.s004.tif: Figure S3 Seize exclusion chromatography of MSP. […] (TIF) Click here for additional data file.

[10] = target: the molecule itself; test: SEC; HiPrep 16/60 Sephacryl S 100 column; 50 mM Tris, 150 mM NaCl, pH 7.5, with 1 mM calcium or 1 mM EDTA; native MSP
[11] = pH 6.0, +EDTA, DOPC/ergosterol liposomes
[12] = pH 6.0, without EDTA, DOPC/ergosterol liposomes

Molecule | Liposome leakage [1, 11] [%] | Liposome leakage [1, 12] [%] | Liposome leakage ([1]; pH 7.4, +EDTA) [%] | Liposome leakage ([1]; pH 7.4, without EDTA) [%] | Clearing zone in antifungal gel overlay assay [2] | Antibacterial activity in CFU assay [3] | Antibacterial activity in CFU assay [4] | Antibacterial activity in CFU assay [5] | Antibacterial activity in CFU assay [6] | Antibacterial activity in CFU assay [7] | Effect on C. albicans by scanning electron microscopy [8] | Oligomeric state on size exclusion chromatography [9] | stoichiometry N [10]
RIFKKEDCKYI [MSP66–76, eleven residues at the very tip of the loop (residue 66–76)] | 41±9 | 31±6 | 16±7 | 29±6 |  |  |  |  |  |  |  |  | 
B1 | 53±5 | 36±8 | 20±6 | 20±5 | displayed antifungal activity by producing a clearing zone | no antibacterial activity | no antibacterial activity | no antibacterial activity | no antibacterial activity | no antibacterial activity | aggregated with disrupted membranes causing cell content leakage | eluted as a dimer | 2
